Source: the supplement of paper PMC9876800

Test system: peptide library, one residue held at a place counted from the S/T acceptor
Assay: relative phosphorylation of the sub-library (ratio to the mean residue at this position); higher = residue favoured
Conditions: human
Summary of the method: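 Spots on streptavidin membranes were phosphorimaged and quantified by densitometry to measure phosphorylation of biotinylated degenerate peptide sub-libraries by purified recombinant kinases, human or orthologue constructs. The reactions ran in 384-well plates for 90 min under kinase-specific conditions, with peptides at 50 μM and 50 μM ATP spiked with γ-32P-ATP. Relative sub-library phosphorylation is the ratio to the mean residue at that position.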

STK24, construct: Full length, sequence (Q9Y6E0 whole entry, looked up): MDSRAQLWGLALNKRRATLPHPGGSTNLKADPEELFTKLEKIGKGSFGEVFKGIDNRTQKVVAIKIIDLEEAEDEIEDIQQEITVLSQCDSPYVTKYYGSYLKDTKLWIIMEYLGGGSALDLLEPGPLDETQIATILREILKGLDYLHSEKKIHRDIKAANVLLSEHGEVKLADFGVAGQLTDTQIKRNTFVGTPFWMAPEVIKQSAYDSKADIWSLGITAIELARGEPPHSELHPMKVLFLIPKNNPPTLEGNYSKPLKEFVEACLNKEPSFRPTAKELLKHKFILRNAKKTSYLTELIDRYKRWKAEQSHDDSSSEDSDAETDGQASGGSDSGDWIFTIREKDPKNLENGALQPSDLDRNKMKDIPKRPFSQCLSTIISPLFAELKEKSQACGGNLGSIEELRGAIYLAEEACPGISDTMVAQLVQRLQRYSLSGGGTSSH
PRKCQ, construct: Full length, sequence (Q04759 whole entry, looked up): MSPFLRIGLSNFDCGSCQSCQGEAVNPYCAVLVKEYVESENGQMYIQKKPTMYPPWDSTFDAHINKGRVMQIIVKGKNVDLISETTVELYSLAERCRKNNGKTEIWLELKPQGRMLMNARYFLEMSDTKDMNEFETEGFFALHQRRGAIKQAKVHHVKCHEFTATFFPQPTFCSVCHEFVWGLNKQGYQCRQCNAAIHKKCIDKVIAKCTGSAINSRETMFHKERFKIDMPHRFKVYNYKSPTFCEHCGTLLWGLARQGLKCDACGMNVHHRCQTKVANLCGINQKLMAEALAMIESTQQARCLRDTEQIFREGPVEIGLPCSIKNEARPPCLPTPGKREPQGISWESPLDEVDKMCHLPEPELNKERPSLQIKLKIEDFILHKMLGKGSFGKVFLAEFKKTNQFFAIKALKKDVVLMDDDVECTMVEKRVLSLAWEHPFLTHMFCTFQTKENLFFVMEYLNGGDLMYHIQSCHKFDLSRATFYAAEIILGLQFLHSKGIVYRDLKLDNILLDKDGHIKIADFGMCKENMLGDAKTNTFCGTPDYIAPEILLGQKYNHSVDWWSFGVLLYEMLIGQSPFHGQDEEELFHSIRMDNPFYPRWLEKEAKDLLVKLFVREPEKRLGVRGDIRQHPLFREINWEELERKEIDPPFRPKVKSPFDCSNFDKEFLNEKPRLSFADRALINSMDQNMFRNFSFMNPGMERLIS
RPS6KA3, construct: Full length, sequence (P51812 whole entry, looked up): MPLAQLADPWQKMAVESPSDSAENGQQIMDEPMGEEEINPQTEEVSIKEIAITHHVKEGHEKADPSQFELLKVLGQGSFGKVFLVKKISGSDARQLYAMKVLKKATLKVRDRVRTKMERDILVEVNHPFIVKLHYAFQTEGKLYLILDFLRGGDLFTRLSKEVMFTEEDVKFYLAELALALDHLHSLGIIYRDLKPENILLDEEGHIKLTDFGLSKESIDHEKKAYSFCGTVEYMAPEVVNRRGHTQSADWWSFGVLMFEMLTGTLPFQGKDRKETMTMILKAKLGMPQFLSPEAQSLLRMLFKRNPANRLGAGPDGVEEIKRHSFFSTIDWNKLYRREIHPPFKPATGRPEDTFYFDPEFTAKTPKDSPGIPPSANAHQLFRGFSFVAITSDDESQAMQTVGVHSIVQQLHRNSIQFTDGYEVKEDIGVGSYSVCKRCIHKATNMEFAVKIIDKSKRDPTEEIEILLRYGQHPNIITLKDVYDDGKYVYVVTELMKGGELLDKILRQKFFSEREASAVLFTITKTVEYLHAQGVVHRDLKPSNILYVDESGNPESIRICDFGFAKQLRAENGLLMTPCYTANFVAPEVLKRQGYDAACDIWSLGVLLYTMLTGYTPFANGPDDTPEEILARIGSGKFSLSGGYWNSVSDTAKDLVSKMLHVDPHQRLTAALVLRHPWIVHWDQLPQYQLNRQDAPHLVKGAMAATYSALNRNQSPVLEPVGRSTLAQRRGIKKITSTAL
NLK, construct: Full length, sequence (Q9UBE8 whole entry, looked up): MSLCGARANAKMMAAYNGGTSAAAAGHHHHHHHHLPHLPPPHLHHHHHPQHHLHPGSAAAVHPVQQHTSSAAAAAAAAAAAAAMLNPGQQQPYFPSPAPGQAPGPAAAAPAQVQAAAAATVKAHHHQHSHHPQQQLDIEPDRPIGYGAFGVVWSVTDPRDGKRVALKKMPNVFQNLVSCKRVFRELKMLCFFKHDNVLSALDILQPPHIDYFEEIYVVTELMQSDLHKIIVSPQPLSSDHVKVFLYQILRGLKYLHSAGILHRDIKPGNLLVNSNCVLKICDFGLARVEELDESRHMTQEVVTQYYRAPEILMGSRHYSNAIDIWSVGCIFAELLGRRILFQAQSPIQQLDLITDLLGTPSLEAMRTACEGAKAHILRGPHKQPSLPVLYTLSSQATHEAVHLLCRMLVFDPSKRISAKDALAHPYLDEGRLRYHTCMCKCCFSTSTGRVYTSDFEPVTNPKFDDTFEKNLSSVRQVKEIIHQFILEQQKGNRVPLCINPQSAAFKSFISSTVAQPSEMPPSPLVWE

PRKCQ, construct: Full length (from UniProt Q04759)
relative phosphorylation
Conditions | at +1 | at +2 | at +3 | at +4 | at -1 | at -2 | at -3 | at -4 | at -5
A fixed | 0.568 | 0.491 | 0.841 | 0.988 | 1.06 | 0.884 | 0.837 | 1.17 | 1.13
D fixed | 0.139 | 0.187 | 0.373 | 0.434 | 0.378 | 0.333 | 0.326 | 0.642 | 0.786
E fixed | 0.184 | 0.14 | 0.362 | 0.385 | 0.315 | 0.305 | 0.344 | 0.725 | 0.58
F fixed | 1.93 | 0.626 | 0.883 | 0.614 | 0.853 | 0.689 | 0.694 | 0.748 | 0.981
G fixed | 0.411 | 0.376 | 0.887 | 1.1 | 1.6 | 1.22 | 0.871 | 1.41 | 1.21
H fixed | 0.815 | 1.45 | 1.33 | 1.6 | 1.08 | 1.15 | 1.33 | 1.2 | 1.14
I fixed | 1.46 | 0.612 | 0.762 | 0.629 | 0.309 | 0.348 | 0.329 | 0.522 | 0.769
K fixed | 1.63 | 3.19 | 1.91 | 2.4 | 1.89 | 1.89 | 1.72 | 1.51 | 1.58
L fixed | 1.16 | 0.553 | 0.969 | 0.652 | 0.64 | 0.472 | 0.462 | 0.553 | 0.857
M fixed | 1.68 | 0.819 | 0.85 | 0.721 | 0.861 | 0.612 | 0.583 | 0.784 | 0.682
N fixed | 0.441 | 0.873 | 0.782 | 1.01 | 1.21 | 1.11 | 0.915 | 1.05 | 0.899
P fixed | 0.185 | 0.274 | 0.557 | 1.23 | 0.941 | 0.462 | 0.706 | 1.1 | 1.02
Q fixed | 0.952 | 0.748 | 0.929 | 0.944 | 1.09 | 1.22 | 0.982 | 0.996 | 0.862
R fixed | 1.83 | 3.66 | 2.14 | 1.88 | 2.29 | 4.01 | 4.83 | 1.95 | 1.88
V fixed | 1.35 | 0.598 | 0.776 | 0.688 | 0.539 | 0.47 | 0.435 | 0.669 | 0.775
W fixed | 1.07 | 0.859 | 1.31 | 0.884 | 0.728 | 1.01 | 0.814 | 1.22 | 1.12
Y fixed | 1.21 | 1.54 | 1.33 | 0.827 | 1.2 | 0.822 | 0.816 | 0.757 | 0.734
pThr fixed | 0.427 | 0.275 | 0.349 | 0.36 | 0.266 | 0.481 | 0.571 | 0.689 | 0.572
pTyr fixed | 0.351 | 0.255 | 0.379 | 0.263 | 0.543 | 0.497 | 0.566 | 0.574 | 0.645

NLK, construct: Full length (from UniProt Q9UBE8)
relative phosphorylation
Conditions | at +1 | at +2 | at +3 | at +4 | at -1 | at -2 | at -3 | at -4 | at -5
A fixed | 0.638 | 0.768 | 0.938 | 0.8 | 0.85 | 0.989 | 1.12 | 1.03 | 0.998
D fixed | 0.435 | 0.514 | 0.628 | 0.634 | 0.604 | 0.568 | 0.652 | 0.931 | 1.01
E fixed | 0.41 | 0.477 | 0.618 | 0.607 | 0.571 | 0.604 | 0.729 | 0.855 | 0.86
F fixed | 0.806 | 0.705 | 0.863 | 0.75 | 0.88 | 0.807 | 0.723 | 0.802 | 0.926
G fixed | 1.01 | 0.96 | 1.25 | 0.939 | 0.904 | 0.764 | 1.38 | 1.01 | 0.982
H fixed | 0.652 | 1.23 | 1.04 | 0.982 | 1.21 | 0.842 | 0.819 | 1.11 | 1.02
I fixed | 0.888 | 0.99 | 1.24 | 1.37 | 0.868 | 0.941 | 0.579 | 0.931 | 0.847
K fixed | 0.654 | 1.56 | 1.39 | 1.47 | 1.16 | 0.992 | 0.991 | 1.18 | 1.19
L fixed | 0.921 | 1.12 | 0.995 | 1 | 1.9 | 1.81 | 1.12 | 1.03 | 0.995
M fixed | 0.902 | 0.853 | 1.01 | 0.983 | 1.38 | 1.56 | 1.63 | 0.992 | 0.768
N fixed | 0.581 | 0.991 | 0.762 | 0.868 | 0.805 | 0.812 | 0.956 | 1.1 | 1.01
P fixed | 5.41 | 0.754 | 0.9 | 0.946 | 1.07 | 1.42 | 1.16 | 0.89 | 1.02
Q fixed | 0.629 | 0.904 | 0.883 | 0.948 | 0.953 | 1.03 | 0.941 | 1.02 | 1.06
R fixed | 0.798 | 2.21 | 1.66 | 1.39 | 1.35 | 1.41 | 1.9 | 1.32 | 1.3
V fixed | 0.777 | 1.09 | 0.989 | 1.16 | 0.995 | 0.861 | 0.864 | 0.85 | 0.831
W fixed | 0.753 | 0.859 | 0.824 | 1.16 | 0.638 | 0.807 | 0.752 | 1.07 | 1.07
Y fixed | 0.743 | 1.01 | 1.01 | 0.996 | 0.857 | 0.796 | 0.688 | 0.88 | 1.11
pThr fixed | 0.784 | 0.694 | 0.723 | 0.725 | 0.775 | 0.996 | 0.944 | 1.18 | 0.965
pTyr fixed | 0.717 | 0.523 | 0.796 | 0.631 | 0.774 | 0.772 | 0.734 | 0.661 | 0.949

STK24, construct: Full length (from UniProt Q9Y6E0)
relative phosphorylation
Conditions | at +1 | at +2 | at +3 | at +4 | at -1 | at -2 | at -3 | at -4 | at -5
A fixed | 0.627 | 0.917 | 0.954 | 0.963 | 1.01 | 0.99 | 1.02 | 1.14 | 1.34
D fixed | 0.166 | 0.344 | 0.465 | 0.516 | 0.762 | 0.388 | 0.58 | 0.738 | 0.689
E fixed | 0.175 | 0.268 | 0.443 | 0.499 | 0.483 | 0.344 | 0.586 | 0.869 | 0.689
F fixed | 1.29 | 0.471 | 0.999 | 0.679 | 0.781 | 1.19 | 0.855 | 0.867 | 0.873
G fixed | 0.498 | 1.11 | 1.15 | 0.979 | 1.88 | 1.34 | 1.48 | 1.34 | 1.2
H fixed | 0.946 | 1.11 | 1.17 | 1.03 | 1.12 | 1.44 | 1.05 | 1.08 | 1.07
I fixed | 1.77 | 0.493 | 0.827 | 0.727 | 0.43 | 0.782 | 0.675 | 0.743 | 0.713
K fixed | 0.827 | 3.1 | 2.09 | 2.43 | 1.57 | 1.41 | 1.84 | 1.51 | 1.87
L fixed | 1.76 | 0.472 | 1.01 | 0.716 | 0.98 | 0.635 | 0.737 | 0.75 | 0.719
M fixed | 1.61 | 0.6 | 0.843 | 0.846 | 0.897 | 0.702 | 0.738 | 0.81 | 0.68
N fixed | 0.547 | 0.871 | 0.812 | 0.998 | 1.27 | 1.05 | 1.06 | 0.97 | 0.902
P fixed | 0.401 | 0.807 | 0.802 | 0.952 | 0.751 | 0.765 | 0.959 | 0.94 | 1.2
Q fixed | 0.673 | 0.789 | 0.822 | 0.936 | 0.945 | 0.91 | 0.935 | 1.01 | 0.926
R fixed | 0.919 | 3.78 | 1.79 | 2.24 | 1.79 | 1.44 | 1.71 | 1.5 | 1.5
V fixed | 1.47 | 0.615 | 0.828 | 0.693 | 0.546 | 0.83 | 0.71 | 0.772 | 0.851
W fixed | 2.07 | 0.626 | 1.04 | 1.04 | 0.809 | 1.15 | 1.05 | 1.01 | 0.906
Y fixed | 1.25 | 0.618 | 0.968 | 0.76 | 0.981 | 1.64 | 1.01 | 0.951 | 0.868
pThr fixed | 1.19 | 1.05 | 0.892 | 0.801 | 0.865 | 1.28 | 1.61 | 1.33 | 1.43
pTyr fixed | 0.488 | 0.389 | 0.748 | 0.55 | 1.1 | 0.833 | 1.15 | 0.836 | 1.16

RPS6KA3, construct: Full length (from UniProt P51812)
relative phosphorylation
Conditions | at +1 | at +2 | at +3 | at +4 | at -1 | at -2 | at -3 | at -4 | at -5
A fixed | 0.876 | 1.48 | 0.988 | 1.03 | 0.917 | 0.555 | 0.652 | 1.08 | 0.961
D fixed | 0.617 | 1.08 | 1.48 | 1.39 | 0.636 | 0.658 | 0.452 | 0.62 | 0.501
E fixed | 0.97 | 0.833 | 1.58 | 1.24 | 0.466 | 0.617 | 0.402 | 0.76 | 0.4
F fixed | 0.848 | 0.548 | 0.78 | 0.679 | 0.709 | 0.568 | 0.327 | 0.682 | 0.703
G fixed | 0.704 | 1.17 | 1.21 | 1.17 | 1.13 | 0.85 | 0.555 | 1.15 | 1.01
H fixed | 1.16 | 1.34 | 1.14 | 0.914 | 1.01 | 0.979 | 0.566 | 0.911 | 0.892
I fixed | 1.2 | 0.77 | 0.666 | 0.826 | 0.652 | 0.615 | 0.373 | 0.834 | 0.762
K fixed | 1.16 | 1.08 | 0.972 | 1.17 | 1.49 | 2.6 | 1.7 | 1.8 | 2.04
L fixed | 0.927 | 0.732 | 0.905 | 0.652 | 0.906 | 0.976 | 0.37 | 0.811 | 0.944
M fixed | 1.1 | 0.727 | 0.722 | 0.828 | 0.933 | 0.614 | 0.291 | 0.99 | 0.736
N fixed | 0.957 | 0.985 | 0.827 | 0.902 | 1.02 | 0.708 | 0.464 | 0.855 | 0.719
P fixed | 0.432 | 0.677 | 0.997 | 1.6 | 2.36 | 0.457 | 0.785 | 0.863 | 0.951
Q fixed | 1.22 | 0.716 | 0.808 | 0.895 | 0.935 | 0.962 | 0.641 | 1.01 | 0.836
R fixed | 1.34 | 1.59 | 1.11 | 1.26 | 1.39 | 4.29 | 8.12 | 2.46 | 3.13
V fixed | 1.45 | 1.07 | 0.839 | 0.941 | 0.752 | 0.591 | 0.393 | 0.698 | 0.852
W fixed | 0.887 | 0.858 | 0.998 | 0.738 | 0.628 | 0.361 | 0.408 | 0.725 | 0.807
Y fixed | 1.15 | 1.34 | 0.979 | 0.762 | 1.06 | 0.601 | 0.498 | 0.753 | 0.748
pThr fixed | 1.89 | 1.03 | 1.64 | 2.38 | 0.318 | 0.319 | 0.343 | 0.719 | 0.648
pTyr fixed | 1.7 | 1.14 | 2.08 | 1.47 | 0.543 | 0.3 | 0.306 | 0.448 | 0.668
